Source: PMC5928214, “Direct binding of CEP85 to STIL ensures robust PLK4 activation and efficient centriole assembly” (Nature Communications, 2018)
Values belong to the molecule of their own block, whether it stands above or below them.

Legend:
3xStrep-GFP-tagged STIL = experiment: microtubule recruitment assay in cells (MAP7-mCherry-CEP85 / GFP-STIL co-transfection, fluorescence microscopy); conditions: U-2 OS STIL CRISPR KO cells, co-transfected for 24 h; parent: 98; read off a plot
chicken STIL NTD = target: T1, chicken STIL NTD (chicken (Gallus gallus), UniProt A0A8V1A6L7 1-365); experiment: ITC + AUC; recombinant chicken STIL NTD and human CEP85 cc4; affinity given as a range depending on the experimental conditions; conditions: both partners purified
T1 construct: STIL, chicken (Gallus gallus), N-terminal domain (NTD), 66% identical to human STIL NTD; construct details in the Supplementary Information; also called Gallus gallus STIL NTD; STIL NTD WT
T1 sequence (looked up): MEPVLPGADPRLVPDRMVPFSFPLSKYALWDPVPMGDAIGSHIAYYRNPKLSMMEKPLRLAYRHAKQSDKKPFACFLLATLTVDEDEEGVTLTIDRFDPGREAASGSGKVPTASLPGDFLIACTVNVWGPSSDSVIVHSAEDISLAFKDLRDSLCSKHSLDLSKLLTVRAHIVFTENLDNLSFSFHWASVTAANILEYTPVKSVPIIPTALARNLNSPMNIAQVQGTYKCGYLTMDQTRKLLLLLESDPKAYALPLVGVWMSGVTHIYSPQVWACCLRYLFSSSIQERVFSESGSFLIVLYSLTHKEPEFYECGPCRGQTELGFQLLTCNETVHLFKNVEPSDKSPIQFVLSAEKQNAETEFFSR

[1] = target: the molecule itself; experiment: crystal structure; H. sapiens CEP85 570-656 alone; 18 °C, 100 mM Na-HEPES pH 7.7, 200 mM Na-Citrate, 36% MPD; 1.7 Å
[2] = target: T2, H. sapiens CEP85 570-656 (CEP85 cc4) (Homo sapiens (Human), UniProt Q6P2H3); experiment: ITC (25 °C, plus AUC); text gives only a range of ~14-65 µM, nM is its midpoint; affinity varies ~14-65 µM with experimental conditions; CEP85 cc4 must be dimeric to bind (dimer favoured at reduced temperature)
T2 chain: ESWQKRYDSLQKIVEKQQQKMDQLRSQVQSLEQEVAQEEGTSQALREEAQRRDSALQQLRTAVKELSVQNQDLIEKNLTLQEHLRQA

[3] = target: T3, H. sapiens CEP85 570-656 (CEP85 cc4) (human, UniProt Q6P2H3 570-656); experiment: ITC; 10 °C
T3 chain: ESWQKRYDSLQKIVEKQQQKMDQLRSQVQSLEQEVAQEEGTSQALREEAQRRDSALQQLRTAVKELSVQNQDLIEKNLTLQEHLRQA

screen value (3xStrep-GFP-tagged STIL): 22 % of cells
Molecule: 3xFLAG-MAP7(17-282)-mCherry-CEP85 wild type mutant Q640A [human] / 3xStrep-GFP-tagged STIL [not stated] chain 2 Q640A

screen value (3xStrep-GFP-tagged STIL): 11 % of cells
Molecule: 3xFLAG-MAP7(17-282)-mCherry-CEP85 wild type mutant Q640A; E644A [human] / 3xStrep-GFP-tagged STIL [not stated] chain 2 Q640A, chain 2 E644A

Continued, molecule first:

Molecule: 3xFLAG-MAP7(17-282)-mCherry-CEP85 wild type mutant E644A [human] / 3xStrep-GFP-tagged STIL [not stated] chain 2 E644A
screen value (3xStrep-GFP-tagged STIL): 47 % of cells

B1: H. sapiens CEP85 570-656 (CEP85 cc4) (domain or fragment, human, UniProt Q6P2H3 570-656, looked up)
chain: ESWQKRYDSLQKIVEKQQQKMDQLRSQVQSLEQEVAQEEGTSQALREEAQRRDSALQQLRTAVKELSVQNQDLIEKNLTLQEHLRQA
notes: CEP85, human, fourth coiled-coil domain (cc4), residues 570-656; Limits are those printed for the crystallised construct; Parallel coiled-coil dimer in the crystals; monomer-dimer equilibrium in solution at room temperature; also called human CEP85 cc4; CEP85 coiled-coil
Kd (chicken STIL NTD): 14 to 65 µM
stoichiometry N [1]: 2

B2: chicken STIL NTD (domain or fragment)
chain: MEPVLPGADPRLVPDRMVPFSFPLSKYALWDPVPMGDAIGSHIAYYRNPKLSMMEKPLRLAYRHAKQSDKKPFACFLLATLTVDEDEEGVTLTIDRFDPGREAASGSGKVPTASLPGDFLIACTVNVWGPSSDSVIVHSAEDISLAFKDLRDSLCSKHSLDLSKLLTVRAHIVFTENLDNLSFSFHWASVTAANILEYTPVKSVPIIPTALARNLNSPMNIAQVQGTYKCGYLTMDQTRKLLLLLESDPKAYALPLVGVWMSGVTHIYSPQVWACCLRYLFSSSIQERVFSESGSFLIVLYSLTHKEPEFYECGPCRGQTELGFQLLTCNETVHLFKNVEPSDKSPIQFVLSAEKQNAETEFFSR
Kd [2]: ~30 µM
Kd [3]: 59 µM
